# Results as given in US12195506B2, “Immunotherapy with A*01 restricted peptides and combination of peptides against cancers and related methods” (Immatics Biotechnologies GmbH, priority 2018, dated 2025).
# System: CD8+ T cells
# Experiment: In vitro T-cell priming assay with artificial antigen presenting cells loaded with peptide/MHC complexes and anti-CD28 antibody, pMHC multimer readout
# Assay type: cell-based, human
# Details: Table 10a; in vitro immunogenicity, peptide-specific multimer+ CD8+ T cells
# From the text: In order to obtain information regarding the immunogenicity of the TUMAPs of the present invention, the inventors performed investigations using an in vitro T-cell priming assay based on repeated stimulations of CD8+ T cells with artificial antigen presenting cells (aAPCs) loaded with peptide/MHC complexes and anti-CD28 antibody.
# In order to perform in vitro stimulations by artificial antigen presenting cells loaded with peptide-MHC complex (pMHC) and anti-CD28 antibody, the inventors first isolated CD8+ T cells from fresh HLA-A*02 leukapheresis products via positive selection using CD8 microbeads (Miltenyi Biotec, Bergisch-Gladbach, Germany) of healthy donors obtained from the University clinics Mannheim, Germany, after informed consent.
# PBMCs and isolated CD8+ lymphocytes were incubated in T-cell medium (TCM) until use consisting of RPMI-Glutamax (Invitrogen, Karlsruhe, Germany) supplemented with 10% heat inactivated human AB serum (PAN-Biotech, Aidenbach, Germany), 100 U/ml Penicillin/100 μg/ml Streptomycin (Cambrex, Cologne, Germany), 1 mM sodium pyruvate (CC Pro, Oberdorla, Germany), 20 μg/ml Gentamycin (Cambrex). 2.5 ng/ml IL-7 (PromoCell, Heidelberg, Germany) and 10 U/ml IL-2 (Novartis Pharma, Nurnberg, Germany) were also added to the TCM at this step.
# Generation of pMHC/anti-CD28 coated beads, T-cell stimulations and readout was performed in a highly defined in vitro system using four different pMHC molecules per stimulation condition and 8 different pMHC molecules per readout condition.
# The purified co-stimulatory mouse IgG2a anti human CD28 Ab 9.3 (Jung et al., 1987) was chemically biotinylated using Sulfo-N-hydroxysuccinimidobiotin as recommended by the manufacturer (Perbio, Bonn, Germany). Beads used were 5.6 μm diameter streptavidin coated polystyrene particles (Bangs Laboratories, Illinois, USA).
# pMHC used for positive and negative control stimulations were A*0201/MLA-001 (peptide […] (SEQ ID NO. 433) from modified Melan-A/MART-1) and A*0201/DDX5-001 ([…] from DDX5, SEQ ID NO. 434), respectively.
# 800.000 beads/200 μI were coated in 96-well plates in the presence of 4×12.5 ng different biotin-pMHC, washed and 600 ng biotin anti-CD28 were added subsequently in a volume of 200 μI. Stimulations were initiated in 96-well plates by co-incubating 1×10^6 CD8+ T cells with 2×10^5 washed coated beads in 200 μI TCM supplemented with 5 ng/ml IL-12 (PromoCell) for 3 days at 37° C. Half of the medium was then exchanged by fresh TCM supplemented with 80 U/ml IL-2 and incubating was continued for 4 days at 37° C. This stimulation cycle was performed for a total of three times. For the pMHC multimer readout using 8 different pMHC molecules per condition, a two-dimensional combinatorial coding approach was used as previously described (Andersen et al., 2012) with minor modifications encompassing coupling to 5 different fluorochromes. Finally, multimeric analyses were performed by staining the cells with Live/dead near IR dye (Invitrogen, Karlsruhe, Germany), CD8-FITC antibody clone SK1 (BD, Heidelberg, Germany) and fluorescent pMHC multimers. For analysis, a BD LSRII SORP cytometer equipped with appropriate lasers and filters was used. Peptide specific cells were calculated as percentage of total CD8+ cells. Evaluation of multimeric analysis was done using the FlowJo software (Tree Star, Oregon, USA). In vitro priming of specific multimer+CD8+ lymphocytes was detected by comparing to negative control stimulations.
row,Substance,Wells positive [%]
1,415 (VWSDVTPLNF; listed as Homo sapiens) [compound 415],+ (<20% = +)
2,414 (LTEGHSGNYY; listed as Homo sapiens) [compound 414],+ (<20% = +)

# Biological target: HLA-A*01:01 (Homo sapiens, UniProt P04439, A114D/A174V/A182V/D101N/D185E/E176A/E190D/L180R/Q94H/R68K/S129P/T187R/V100A/V91M/W191G)
# Experiment: MHC binding assay: UV-ligand exchange, ELISA of stabilized MHC complexes (peptide exchange yield)
# Details: binding to HLA-A*01:01, UV-ligand exchange
# Summary of the method: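 Peptide–MHC complexes were formed by UV-induced exchange of a photocleavable ligand for the test peptide. Exchange yield was measured by streptavidin-capture ELISA of 100-fold diluted complexes, detected with HRP anti-β2m at A450. Refolded HLA-A*02:01/MLA-001 monomers at 15-500 ng/ml served as standards.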
row,Substance,Peptide exchange
1,186 (AVSSGLFFY; listed as Homo sapiens) [compound 186],++ (>20% = ++)
2,182 (TQPELSSRY; listed as Homo sapiens) [compound 182],++ (>20% = ++)
3,40 (TSDQLGYSY; listed as Homo sapiens) [compound 40],+++ (>50 = +++)
4,162 (IADNPQLSFY; listed as Homo sapiens) [compound 162],++++ (>75% = ++++)
5,32 (GTDKQNSTLRY; listed as Homo sapiens) [compound 32],+++ (>50 = +++)
6,192 (LAFYYGMY; listed as Homo sapiens) [compound 192],++ (>20% = ++)
7,93 (HLKILSPIY; listed as Homo sapiens) [compound 93],+++ (>50 = +++)
8,159 (RQAPGPARDY; listed as Homo sapiens) [compound 159],++ (>20% = ++)
9,149 (PIMSSSQALY; listed as Homo sapiens) [compound 149],++ (>20% = ++)
10,220 (DVERIKDTY; listed as Homo sapiens) [compound 220],++ (>20% = ++)
11,14 (QSEKEPGQQY; listed as Homo sapiens) [compound 14],+++ (>50 = +++)
12,15 (YLDSSKPAVY; listed as Homo sapiens) [compound 15],+++ (>50 = +++)
13,9 (QLDSTLDSY; listed as Homo sapiens) [compound 9],+++ (>50 = +++)
14,138 (IPVHDSVGVTY; listed as Homo sapiens) [compound 138],+++ (>50 = +++)
15,137 (EAYLERIGY; listed as Homo sapiens) [compound 137],+++ (>50 = +++)
16,119 (TVFDENLSRY; listed as Homo sapiens) [compound 119],++ (>20% = ++)
17,132 (RTHIGYKVY; listed as Homo sapiens) [compound 132],+++ (>50 = +++)
18,146 (LCATVCGTEQY; listed as Homo sapiens) [compound 146],++ (>20% = ++)
19,90 (YEDHFPLLF; listed as Homo sapiens) [compound 90],++ (>20% = ++)
20,130 (YIGLKGLYF; listed as Homo sapiens) [compound 130],++ (>20% = ++)
21,231 (LLPLLVMAY; listed as Homo sapiens) [compound 231],++ (>20% = ++)
22,126 (TTDPKKFQY; listed as Homo sapiens) [compound 126],++++ (>75% = ++++)
23,157 (GLIEVVTGY; listed as Homo sapiens) [compound 157],++++ (>75% = ++++)
24,165 (VSVYNSYPY; listed as Homo sapiens) [compound 165],++ (>20% = ++)
25,218 (FTAQLQLY; listed as Homo sapiens) [compound 218],+++ (>50 = +++)
26,181 (SVTDLIGGKW; listed as Homo sapiens) [compound 181],++ (>20% = ++)
27,92 (TTDDTTAMASAS; listed as Homo sapiens) [compound 92],++ (>20% = ++)
28,228 (KSFDDIAKY; listed as Homo sapiens) [compound 228],++ (>20% = ++)
29,164 (KLAGTVFQY; listed as Homo sapiens) [compound 164],++ (>20% = ++)
30,113 (ASCRSSAEY; listed as Homo sapiens) [compound 113],++++ (>75% = ++++)

# Further lines, results first:
row,Peptide exchange,Substance
1,++ (>20% = ++),244 (VTKYIAGPY; listed as Homo sapiens) [compound 244]
2,+++ (>50 = +++),336 (ATNIQLNIDTY; listed as Homo sapiens) [compound 336]
3,+++ (>50 = +++),245 (LSDNAANRY; listed as Homo sapiens) [compound 245]
4,++ (>20% = ++),385 (SANALILTY; listed as Homo sapiens) [compound 385]
5,++ (>20% = ++),394 (QVPLDCVLY; listed as Homo sapiens) [compound 394]
6,++ (>20% = ++),353 (RLNGSVASY; listed as Homo sapiens) [compound 353]
7,+++ (>50 = +++),248 (VTDIDELGK; listed as Homo sapiens) [compound 248]
8,++ (>20% = ++),271 (VAEPPVVCSY; listed as Homo sapiens) [compound 271]
9,+++ (>50 = +++),303 (GFGGLSSQGVYY; listed as Homo sapiens) [compound 303]
10,++++ (>75% = ++++),345 (NTMDAVPRIDHY; listed as Homo sapiens) [compound 345]
11,++ (>20% = ++),354 (EIIRYIFAY; listed as Homo sapiens) [compound 354]
12,+ (>10% =+),384 (RFRSITQSYY; listed as Homo sapiens) [compound 384]
13,+++ (>50 = +++),341 (PANYLGKMTY; listed as Homo sapiens) [compound 341]
14,++++ (>75% = ++++),381 (ETSFSTSHY; listed as Homo sapiens) [compound 381]
15,++ (>20% = ++),282 (QAMPSWPTAAY; listed as Homo sapiens) [compound 282]
16,++++ (>75% = ++++),388 (YTAHVGYSMY; listed as Homo sapiens) [compound 388]
17,++ (>20% = ++),355 (MADRGEARL; listed as Homo sapiens) [compound 355]
18,+++ (>50 = +++),368 (ESAATGQLDY; listed as Homo sapiens) [compound 368]
19,++ (>20% = ++),259 (APDEVVALL; listed as Homo sapiens) [compound 259]
20,+++ (>50 = +++),258 (RPSSVLTIY; listed as Homo sapiens) [compound 258]
21,++++ (>75% = ++++),356 (NSENHILKY; listed as Homo sapiens) [compound 356]
22,++++ (>75% = ++++),234 (YTDLTTIQV; listed as Homo sapiens) [compound 234]
23,++ (>20% = ++),247 (SMIRVGTNY; listed as Homo sapiens) [compound 247]
24,+++ (>50 = +++),237 (AQEAAVFLTLY; listed as Homo sapiens) [compound 237]
25,++ (>20% = ++),377 (YADPSANRDLL; listed as Homo sapiens) [compound 377]
26,++ (>20% = ++),395 (ILKGGSGTY; listed as Homo sapiens) [compound 395]
27,+ (>10% =+),288 (TEEKFVSY; listed as Homo sapiens) [compound 288]
28,++ (>20% = ++),362 (SGALDEAAAY; listed as Homo sapiens) [compound 362]
